Measurements taken from patent US20090192100, “NOVEL USE OF SPIEGELMERS” (published 2009).

Biological target: T1, HMGA1b-His6 (Homo sapiens, S2G)
T1 chain: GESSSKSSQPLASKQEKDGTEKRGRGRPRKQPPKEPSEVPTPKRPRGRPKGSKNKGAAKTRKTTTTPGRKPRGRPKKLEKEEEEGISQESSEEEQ
Test: streptavidin plate assay with nickel-HRP detection; poly(dGdC) competitor
Settings: tags: C-terminal L-GSLNS-His6 (vector pHO2d), expressed in E. coli BL21; label: 5'-biotin on 34 nt strand
Procedure: The detection of HMGA1b-His6 bound to DNA is carried out with horseradish peroxidase modified with nickel (Nickel-HRP), which transforms a fluorogenic substrate. In this assay the spiegelmer displaces the recombinant HMGA1b from its natural binding partner. On account of the 1:1:1 stoichiometry of spiegelmer/rHMGA1b/dsDNA AT Hook, a direct prediction can be made regarding the affinity of the spiegelmers for HMGA1b. The principle of the assay is illustrated in FIG. 5.
To carry out this test spiegelmers in various concentrations and HMGA1b-His6 (0.36 μg/ml; ca. 30 nM) in a total volume of 100 μl are incubated for 10 minutes in a tapered floor plate at room temperature while shaking. The incubation solution also contains: 25 mM Tris/HCl, pH 7.0 (Ambion, Austin, Tex., USA), 140 mM KCl (Ambion, Austin, Tex., USA), 12 mM NaCl (Ambion, Austin, Tex., USA), 0.8 mM MgCl2 (Ambion, Austin, Tex., USA), 0.25 mg/ml BSA (Roche, Mannheim, Germany), 1 mM DTT (Invitrogen, Karlsruhe, Germany), 18-20 μg/ml poly(dGdC) (Sigma, Deisenhofen, Germany)), 0.05% Tween 20 (Roche, Mannheim, Germany). […]
100 μl of the fluorogenic HRP substrate (QuantaBlue, Pierce, Bonn, Germany) are then added to each well and the fluorescence is measured after 15 mins (ex: 340/em: 405 nm).

B1: dsDNA AT hook (dsDNA)
DNA 1: TCGAAAAAAGCAAAAAAAAAAAAAAAAAACTGGC
DNA 2: GCCAGTTTTTTTTTTTTTTTTTTGCTTTTTT
binding result: binds
